Results published in PMC5290487.

Biological target: MK2 (mitogen-activated protein kinase-activated protein kinase 2), endogenous in COS-1 cells
Test: co-immunoprecipitation (IP of endogenous MK2, western blot for PDE4A5), quantified
Details: COS-1 cell lysates; parent: est. 100; read off a plot

Row | percent of parent (% binding of MK2 in Wt IP) | Substance
1 | 79 | PDE4A5 (long PDE4A isoform), wild type (from UniProt P54748-1) Y143A
2 | 73 | PDE4A5 (long PDE4A isoform), wild type (from UniProt P54748-1) L142A
3 | 58 | PDE4A5 (long PDE4A isoform), wild type (from UniProt P54748-1) F141A
4 | 1.5 | PDE4A5 (long PDE4A isoform), wild type (from UniProt P54748-1) F141A; L142A; Y143A

Biological target: MK2 (mitogen-activated protein kinase-activated protein kinase 2), endogenous in COS-1 cells
Test: as above
Details: COS-1 cell lysates; parent: est. 100; read off a plot
Remark: another data set of the same source

Row | percent of parent (% binding of MK2 in Wt IP) | Substance
5 | 80 | PDE4A5 (long PDE4A isoform), wild type (from UniProt P54748-1) W664A; Y665A; H666A; S667A
6 | 63 | PDE4A5 (long PDE4A isoform), wild type (from UniProt P54748-1) F693A; Q694A; F695A
7 | 67 | PDE4A5 (long PDE4A isoform), wild type (from UniProt P54748-1) T698A; L699A; E700A; E701A
8 | 88 | PDE4A5 (long PDE4A isoform), wild type (from UniProt P54748-1) I654A; L655A; D656A
9 | 2 | PDE4A5 (long PDE4A isoform), wild type (from UniProt P54748-1) F141A; L142A; Y143A
